According to the supplement of paper PMC10567573:

B1: TMEM106C (parent)
chain: SEQLVNFTGKAEMGGPFSYVYFFC
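Note: lentivirally expressed fusions sorted by FACS into six bins by GFP to DsRed ratio, PSI derived from sequencing read proportions per bin multiplied by bin number.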

Variants of: B1
Assay: protein stability index of a GFP-peptide fusion (GPS, HEK-293T) (PSI 1-6); higher = more stable
Details: c terminus: a fixed tail appended
SEQLVNFTGKAEMGGPFIYVYFFC [S18I] showed a protein stability index of 3.11. For SEQLVNFTGKAEMGGPFKYVYFFC [S18K], the protein stability index was 2.25. In the case of SEQLVNFTGKAEMGGPFLYVYFFC [S18L], the protein stability index is reported as 3.3. Work on SEQLVNFTGKAEMGGPFMYVYFFC [S18M] yielded a protein stability index of 4.17. With SEQLVNFTGKAEMGGPFNYVYFFC [S18N] the protein stability index was 3. SEQLVNFTGKAEMGGPFPYVYFFC [S18P] showed a protein stability index of 2.26. In the case of SEQLVNFTGKAEMGGPFQYVYFFC [S18Q], the protein stability index is reported as 2.45. SEQLVNFTGKAEMGGPFRYVYFFC [S18R] showed a protein stability index of 3.37. In the case of SEQLVNFTGKAEMGGPFTYVYFFC [S18T], the protein stability index is reported as 2.31. Variant SEQLVNFTGKAEMGGPFVYVYFFC [S18V] has a protein stability index of 4.08. For SEQLVNFTGKAEMGGPFWYVYFFC [S18W], the protein stability index was 1.72. Variant SEQLVNFTGKAEMGGPFYYVYFFC [S18Y] has a protein stability index of 2.04. For SEQLVNFTGKAEMGGPFSAVYFFC [Y19A], the protein stability index was 2. Work on SEQLVNFTGKAEMGGPFSCVYFFC [Y19C] yielded a protein stability index of 2.1. In the case of SEQLVNFTGKAEMGGPFSDVYFFC [Y19D], the protein stability index is reported as 1.91. In the case of SEQLVNFTGKAEMGGPFSEVYFFC [Y19E], the protein stability index is reported as 1.93. SEQLVNFTGKAEMGGPFSFVYFFC [Y19F] showed a protein stability index of 2.11. Variant SEQLVNFTGKAEMGGPFSGVYFFC [Y19G] has a protein stability index of 2.97. In the case of SEQLVNFTGKAEMGGPFSHVYFFC [Y19H], the protein stability index is reported as 3.66. For SEQLVNFTGKAEMGGPFSIVYFFC [Y19I], the protein stability index was 2.51. Work on SEQLVNFTGKAEMGGPFSKVYFFC [Y19K] yielded a protein stability index of 3.22. Work on SEQLVNFTGKAEMGGPFSLVYFFC [Y19L] yielded a protein stability index of 2.89. For SEQLVNFTGKAEMGGPFSMVYFFC [Y19M], the protein stability index was 3.35. With SEQLVNFTGKAEMGGPFSNVYFFC [Y19N] the protein stability index was 1.97. SEQLVNFTGKAEMGGPFSPVYFFC [Y19P] showed a protein stability index of 1.74. With SEQLVNFTGKAEMGGPFSQVYFFC [Y19Q] the protein stability index was 2.12. Variant SEQLVNFTGKAEMGGPFSRVYFFC [Y19R] has a protein stability index of 2.1. Work on SEQLVNFTGKAEMGGPFSTVYFFC [Y19T] yielded a protein stability index of 2.33. Variant SEQLVNFTGKAEMGGPFSVVYFFC [Y19V] has a protein stability index of 3.9. SEQLVNFTGKAEMGGPFSWVYFFC [Y19W] gave a protein stability index of 2.46. For SEQLVNFTGKAEMGGPFSYAYFFC [V20A], the protein stability index was 2.9. Work on SEQLVNFTGKAEMGGPFSYCYFFC [V20C] yielded a protein stability index of 3.09. Work on SEQLVNFTGKAEMGGPFSYDYFFC [V20D] yielded a protein stability index of 1.76. Work on SEQLVNFTGKAEMGGPFSYEYFFC [V20E] yielded a protein stability index of 2.13. With SEQLVNFTGKAEMGGPFSYFYFFC [V20F] the protein stability index was 2.17. For SEQLVNFTGKAEMGGPFSYGYFFC [V20G], the protein stability index was 2.35. SEQLVNFTGKAEMGGPFSYHYFFC [V20H] gave a protein stability index of 2.53. Variant SEQLVNFTGKAEMGGPFSYIYFFC [V20I] has a protein stability index of 2.7. SEQLVNFTGKAEMGGPFSYKYFFC [V20K] gave a protein stability index of 1.55. In the case of SEQLVNFTGKAEMGGPFSYLYFFC [V20L], the protein stability index is reported as 2.07. Work on SEQLVNFTGKAEMGGPFSYMYFFC [V20M] yielded a protein stability index of 2.65. For SEQLVNFTGKAEMGGPFSYNYFFC [V20N], the protein stability index was 2.69. Variant SEQLVNFTGKAEMGGPFSYPYFFC [V20P] has a protein stability index of 1.98. Work on SEQLVNFTGKAEMGGPFSYQYFFC [V20Q] yielded a protein stability index of 2.65. With SEQLVNFTGKAEMGGPFSYRYFFC [V20R] the protein stability index was 1.68. For SEQLVNFTGKAEMGGPFSYSYFFC [V20S], the protein stability index was 2.56. In the case of SEQLVNFTGKAEMGGPFSYTYFFC [V20T], the protein stability index is reported as 2.77. Work on SEQLVNFTGKAEMGGPFSYWYFFC [V20W] yielded a protein stability index of 1.79. Work on SEQLVNFTGKAEMGGPFSYYYFFC [V20Y] yielded a protein stability index of 2.53. In the case of SEQLVNFTGKAEMGGPFSYVAFFC [Y21A], the protein stability index is reported as 3.06. Variant SEQLVNFTGKAEMGGPFSYVCFFC [Y21C] has a protein stability index of 2.42. For SEQLVNFTGKAEMGGPFSYVDFFC [Y21D], the protein stability index was 1.89. With SEQLVNFTGKAEMGGPFSYVEFFC [Y21E] the protein stability index was 1.42. Variant SEQLVNFTGKAEMGGPFSYVFFFC [Y21F] has a protein stability index of 3.1. SEQLVNFTGKAEMGGPFSYVGFFC [Y21G] gave a protein stability index of 1.84. In the case of SEQLVNFTGKAEMGGPFSYVHFFC [Y21H], the protein stability index is reported as 2.26. With SEQLVNFTGKAEMGGPFSYVKFFC [Y21K] the protein stability index was 2.06. With SEQLVNFTGKAEMGGPFSYVLFFC [Y21L] the protein stability index was 3.93. SEQLVNFTGKAEMGGPFSYVMFFC [Y21M] gave a protein stability index of 3.64. SEQLVNFTGKAEMGGPFSYVNFFC [Y21N] showed a protein stability index of 2.82. SEQLVNFTGKAEMGGPFSYVPFFC [Y21P] gave a protein stability index of 1.49. In the case of SEQLVNFTGKAEMGGPFSYVQFFC [Y21Q], the protein stability index is reported as 2.15. Variant SEQLVNFTGKAEMGGPFSYVRFFC [Y21R] has a protein stability index of 1.49. In the case of SEQLVNFTGKAEMGGPFSYVSFFC [Y21S], the protein stability index is reported as 2.44. For SEQLVNFTGKAEMGGPFSYVTFFC [Y21T], the protein stability index was 3.31. For SEQLVNFTGKAEMGGPFSYVVFFC [Y21V], the protein stability index was 3.6. With SEQLVNFTGKAEMGGPFSYVYAFC [F22A] the protein stability index was 2.62. For SEQLVNFTGKAEMGGPFSYVYCFC [F22C], the protein stability index was 2.58. For SEQLVNFTGKAEMGGPFSYVYDFC [F22D], the protein stability index was 2.33. With SEQLVNFTGKAEMGGPFSYVYEFC [F22E] the protein stability index was 1.88. Variant SEQLVNFTGKAEMGGPFSYVYGFC [F22G] has a protein stability index of 2.86. With SEQLVNFTGKAEMGGPFSYVYHFC [F22H] the protein stability index was 3.04. Variant SEQLVNFTGKAEMGGPFSYVYIFC [F22I] has a protein stability index of 1.96. In the case of SEQLVNFTGKAEMGGPFSYVYKFC [F22K], the protein stability index is reported as 1.84. With SEQLVNFTGKAEMGGPFSYVYMFC [F22M] the protein stability index was 3.04. Work on SEQLVNFTGKAEMGGPFSYVYNFC [F22N] yielded a protein stability index of 1.79. SEQLVNFTGKAEMGGPFSYVYPFC [F22P] showed a protein stability index of 2.06. In the case of SEQLVNFTGKAEMGGPFSYVYQFC [F22Q], the protein stability index is reported as 2.07. SEQLVNFTGKAEMGGPFSYVYRFC [F22R] showed a protein stability index of 2.28. In the case of SEQLVNFTGKAEMGGPFSYVYSFC [F22S], the protein stability index is reported as 2.12. Variant SEQLVNFTGKAEMGGPFSYVYTFC [F22T] has a protein stability index of 3.71. Variant SEQLVNFTGKAEMGGPFSYVYVFC [F22V] has a protein stability index of 3.27. With SEQLVNFTGKAEMGGPFSYVYWFC [F22W] the protein stability index was 2.21. For SEQLVNFTGKAEMGGPFSYVYYFC [F22Y], the protein stability index was 2.78. Variant SEQLVNFTGKAEMGGPFSYVYFAC [F23A] has a protein stability index of 2.45. SEQLVNFTGKAEMGGPFSYVYFCC [F23C] showed a protein stability index of 2.54. SEQLVNFTGKAEMGGPFSYVYFDC [F23D] showed a protein stability index of 1.56. For SEQLVNFTGKAEMGGPFSYVYFEC [F23E], the protein stability index was 2.15. For SEQLVNFTGKAEMGGPFSYVYFGC [F23G], the protein stability index was 3.03. SEQLVNFTGKAEMGGPFSYVYFHC [F23H] showed a protein stability index of 2.28. With SEQLVNFTGKAEMGGPFSYVYFIC [F23I] the protein stability index was 2.42. SEQLVNFTGKAEMGGPFSYVYFKC [F23K] showed a protein stability index of 1.79. With SEQLVNFTGKAEMGGPFSYVYFLC [F23L] the protein stability index was 2.08. SEQLVNFTGKAEMGGPFSYVYFNC [F23N] gave a protein stability index of 1.35.
